This note sets out measurements from US20200317768A1 (published 2020).

Test in all cases: SPR; FcgR bound per captured antibody, normalized to SG1
A general note: In SPR one partner is held on a chip, and binding of the other changes the refractive index at the surface.

The target in assay [1] is T1, cynomolgus monkey FcγRIIa1 extracellular domain, C-terminal His-tag (cynomolgus monkey).
T1 construct: also called cyno FcγRIIa1; FcgRIIa1
T1 chain: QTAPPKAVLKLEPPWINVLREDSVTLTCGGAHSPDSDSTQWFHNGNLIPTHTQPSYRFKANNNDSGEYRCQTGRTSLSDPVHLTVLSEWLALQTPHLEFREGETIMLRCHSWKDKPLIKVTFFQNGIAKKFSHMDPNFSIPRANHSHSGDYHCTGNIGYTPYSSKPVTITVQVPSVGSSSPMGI
The procedure:
(§1) The kinetic analysis of interactions between these antibodies and FcγR was carried out using BIACORE® T200 or BIACORE® 4000 (GE Healthcare). HBS-EP+ (GE Healthcare) was used as the running buffer, and the measurement temperature was set to 25° C. A chip produced by immobilizing Protein A. Protein A/G or mouse anti-human IgG kappa light chain (BD Biosciences) onto a Series S Sensor Chip CM4 or CM5 (GE Healthcare) by the amine-coupling method was used. […] After the measurement, the antibody captured on the chip was washed off by allowing reaction with 10 mM glycine-HCl, pH1.5 and 25 mM NaOH so that the chip was regenerated and used repeatedly. The sensorgrams obtained as measurement results were analyzed by the 1:1 Langmuir binding model using the BIACORE® Evaluation Software to calculate the binding rate constant ka (L/mol/s) and dissociation rate constant kd (l/s), and the dissociation constant KD (mol/L) was calculated from these values. […] Regarding such interactions, KD values were calculated using the following 1:1 binding model described in BIACORE® T100 Software Handbook BR1006-48 Edition AE.
(§2) The value of the amount of FcγR binding was obtained by dividing the amount of FcγR bound by the amount of each antibody captured.

Assay [2] addresses T2, cynomolgus monkey FcγRIIa3 extracellular domain, C-terminal His-tag (cynomolgus monkey).
T2 construct: also called cyno FcγRIIa3; FcgRIIa3
T2 chain: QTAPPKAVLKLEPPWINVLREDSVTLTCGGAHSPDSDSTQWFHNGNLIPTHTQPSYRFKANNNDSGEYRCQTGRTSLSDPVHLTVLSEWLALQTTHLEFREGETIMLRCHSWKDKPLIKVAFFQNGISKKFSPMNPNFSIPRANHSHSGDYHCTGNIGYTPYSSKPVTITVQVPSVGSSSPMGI
How it is done: as §1, §2

Assay [3] deals with T3, cynomolgus monkey FcγRIIa2 extracellular domain, C-terminal His-tag (cynomolgus monkey).
T3 construct: also called cyno FcγRIIa2; FcgRIIa2
T3 chain: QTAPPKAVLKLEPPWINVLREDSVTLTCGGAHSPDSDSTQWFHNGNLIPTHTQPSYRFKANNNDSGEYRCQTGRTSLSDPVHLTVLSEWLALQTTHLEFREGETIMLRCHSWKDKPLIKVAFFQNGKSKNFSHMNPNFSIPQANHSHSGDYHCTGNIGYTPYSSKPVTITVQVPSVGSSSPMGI
The procedure:
as §1, §2

In assay [4] the target is T4, cynomolgus monkey FcγRIIb extracellular domain, C-terminal His-tag (cynomolgus monkey).
T4 construct: also called cyno FcγRIIb; cynoFcγRIIb
T4 chain: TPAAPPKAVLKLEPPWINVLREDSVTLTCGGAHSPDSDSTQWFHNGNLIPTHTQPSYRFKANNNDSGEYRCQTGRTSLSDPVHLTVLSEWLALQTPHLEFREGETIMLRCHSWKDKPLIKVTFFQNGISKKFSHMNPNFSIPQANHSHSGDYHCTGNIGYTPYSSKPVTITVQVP
How it is done: as §1, §2

B1: M103205H795-SG175/M103202L889-SK1 (antibody, human IgG1, kappa)
heavy: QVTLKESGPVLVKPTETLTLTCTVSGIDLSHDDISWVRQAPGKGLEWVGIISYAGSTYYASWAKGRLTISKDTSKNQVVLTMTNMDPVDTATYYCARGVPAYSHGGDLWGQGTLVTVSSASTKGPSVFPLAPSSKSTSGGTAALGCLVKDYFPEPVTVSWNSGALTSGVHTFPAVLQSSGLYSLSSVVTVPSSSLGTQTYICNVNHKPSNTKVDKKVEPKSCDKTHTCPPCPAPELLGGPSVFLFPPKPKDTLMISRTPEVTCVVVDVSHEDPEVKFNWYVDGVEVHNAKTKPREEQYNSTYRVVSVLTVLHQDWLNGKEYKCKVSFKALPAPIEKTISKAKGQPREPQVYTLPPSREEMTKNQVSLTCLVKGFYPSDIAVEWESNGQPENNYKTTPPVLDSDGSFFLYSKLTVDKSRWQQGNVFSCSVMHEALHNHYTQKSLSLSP
light: DIVMTQSPATLSLSPGERATLSCTSSQSVYHANWLSWFQQKPGQPPKLLIYWASTLAYGVPSRFSGSGSGTDFTLTISSLQPEDAATYYCAGGYGGGRYAFGQGTKVEIKRTVAAPSVFIFPPSDEQLKSGTASVVCLLNNFYPREAKVQWKVDNALQSGNSQESVTEQDSKDSTYSLSSTLTLSKADYEKHKVYACEVTHQGLSSPVTKSFNRGEC
notes: also called N325F
For B1, the “amount of FcgR binding (SG1 = 100)” value in assay [1] was 13 SG1 = 100; in assay [2], 17 SG1 = 100; in assay [3] it was 13 SG1 = 100; in assay [4], 14 SG1 = 100.

B2: M103205H795-SG165/M103202L889-SK1 (antibody, human IgG1, kappa)
heavy: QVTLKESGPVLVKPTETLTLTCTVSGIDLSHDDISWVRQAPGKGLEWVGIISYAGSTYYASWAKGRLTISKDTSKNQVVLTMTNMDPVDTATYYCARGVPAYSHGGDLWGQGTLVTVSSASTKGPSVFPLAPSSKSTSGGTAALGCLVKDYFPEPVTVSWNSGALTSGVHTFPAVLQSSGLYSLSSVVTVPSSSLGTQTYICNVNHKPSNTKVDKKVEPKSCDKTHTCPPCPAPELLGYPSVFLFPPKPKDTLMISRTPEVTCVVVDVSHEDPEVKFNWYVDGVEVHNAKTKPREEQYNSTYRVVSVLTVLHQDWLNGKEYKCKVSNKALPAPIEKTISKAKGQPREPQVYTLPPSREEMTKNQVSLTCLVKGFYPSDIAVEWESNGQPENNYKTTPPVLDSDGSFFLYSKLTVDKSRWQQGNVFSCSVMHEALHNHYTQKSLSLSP
light: DIVMTQSPATLSLSPGERATLSCTSSQSVYHANWLSWFQQKPGQPPKLLIYWASTLAYGVPSRFSGSGSGTDFTLTISSLQPEDAATYYCAGGYGGGRYAFGQGTKVEIKRTVAAPSVFIFPPSDEQLKSGTASVVCLLNNFYPREAKVQWKVDNALQSGNSQESVTEQDSKDSTYSLSSTLTLSKADYEKHKVYACEVTHQGLSSPVTKSFNRGEC
notes: also called G237Y
Consider B2, for which the “amount of FcgR binding (SG1 = 100)” value in assay [1] was 18 SG1 = 100; in assay [2] it was 30 SG1 = 100; in assay [3] it was 17 SG1 = 100; in assay [4], 30 SG1 = 100.
